Patent US20260028383A1 (KINE BIOTECH, published 2026)
Changes are numbered by the printed parent chain. Numbers in names are those of the source. Like-named read-outs stand apart in the source and are kept apart here.

B1: IL-2 variant IL-2_#3 (F42V, Y45A, L72N, C125G) (ligand)
chain: APTSSSTKKTQLQLEHLLLDLQMILNGINNYKNPKLTRMLTVKFAMPKKATELKHLQCLEEELKPLEEVLNNAQSKNFHLRPRDLISNINVIVLELKGSETTFMCEYADETATIVEFLNRWITFGQSIISTLT
B2: IL-2 variant IL-2_#8 (F42V, Y45S, L72N, C125G) (ligand)
chain: B1 chain with A45S
B3: IL-2 variant IL-2_#9 (F42H, Y45D, L72I, C125G) (ligand)
chain: B1 chain with V42H, A45D, N72I
B4: IL-2 variant IL-2_#31 (F42A, Y45M, L72N) (ligand)
chain: B1 chain with V42A, A45M, G125C
B5: IL-2 variant IL-2_#12 (F42C, Y45N, L72V) (ligand)
chain: B1 chain with V42C, A45N, N72V, G125C
B6: mutant IL-2, IL-2v (AAG), with F42A, Y45A, and L72G substitutions of IL-2 (F. Hoffmann-La Roche Ltd) (ligand)
chain: B1 chain with V42A, N72G, G125C
B7: IL-2 variant IL-2_#28 (F42A, Y45D, L72D) (ligand)
chain: B1 chain with V42A, A45D, N72D, G125C

Experiments:
Assay in all cases: cell-based or functional assay
[1] = target: high-affinity IL-2R (containing the α/β/γc-subunits of the IL-2R) expressed on CTLL-2 cells (mouse) (UniProt P01590)
[2] = target: high-affinity IL-2R (containing the α/β/γc-subunits of the IL-2R) expressed on CTLL-2 cells (mouse) (UniProt P01590); remark: listed apart in the source
[3] = target: T1, high-affinity IL-2R (containing the α/β/γc-subunits of the IL-2R) expressed on CTLL-2 cells (mouse, UniProt P01590 22-268; P16297 27-539; P34902 23-369)
T1 sequence (looked up) 1: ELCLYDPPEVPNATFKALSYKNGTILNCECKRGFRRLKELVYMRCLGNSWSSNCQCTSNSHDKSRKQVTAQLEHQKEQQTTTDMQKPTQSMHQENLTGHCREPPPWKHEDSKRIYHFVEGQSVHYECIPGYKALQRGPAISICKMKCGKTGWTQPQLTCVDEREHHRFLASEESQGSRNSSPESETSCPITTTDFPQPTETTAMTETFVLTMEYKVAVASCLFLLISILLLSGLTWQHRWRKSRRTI
T1 sequence (looked up) 2: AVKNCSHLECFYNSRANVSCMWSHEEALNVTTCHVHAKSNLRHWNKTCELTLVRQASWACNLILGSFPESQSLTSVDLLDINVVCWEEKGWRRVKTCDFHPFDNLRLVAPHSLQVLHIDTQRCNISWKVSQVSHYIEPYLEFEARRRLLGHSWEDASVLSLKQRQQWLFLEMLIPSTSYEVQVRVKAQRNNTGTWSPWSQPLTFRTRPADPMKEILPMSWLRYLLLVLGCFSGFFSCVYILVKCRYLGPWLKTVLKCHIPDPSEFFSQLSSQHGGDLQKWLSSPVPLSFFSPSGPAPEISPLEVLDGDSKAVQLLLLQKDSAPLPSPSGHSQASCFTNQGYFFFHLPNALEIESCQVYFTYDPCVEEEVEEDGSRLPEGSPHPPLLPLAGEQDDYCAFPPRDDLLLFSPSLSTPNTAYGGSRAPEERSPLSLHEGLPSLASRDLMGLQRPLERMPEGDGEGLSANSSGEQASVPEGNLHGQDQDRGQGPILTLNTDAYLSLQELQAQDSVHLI
T1 sequence (looked up) 3: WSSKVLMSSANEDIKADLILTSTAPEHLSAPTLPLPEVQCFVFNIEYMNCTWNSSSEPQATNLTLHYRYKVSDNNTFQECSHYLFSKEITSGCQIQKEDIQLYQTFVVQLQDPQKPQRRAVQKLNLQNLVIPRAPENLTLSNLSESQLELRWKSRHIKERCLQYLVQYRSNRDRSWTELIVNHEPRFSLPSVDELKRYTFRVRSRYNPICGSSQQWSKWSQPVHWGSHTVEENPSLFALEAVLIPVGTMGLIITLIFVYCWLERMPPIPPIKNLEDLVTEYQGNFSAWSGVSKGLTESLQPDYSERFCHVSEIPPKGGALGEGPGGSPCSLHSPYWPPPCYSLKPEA

[4] = target: T2, intermediate-affinity IL-2R (containing the β/γc-subunits of the IL-2R) expressed on HH cells (human, UniProt P14784 27-551; P31785 23-369)
T2 sequence (looked up) 1: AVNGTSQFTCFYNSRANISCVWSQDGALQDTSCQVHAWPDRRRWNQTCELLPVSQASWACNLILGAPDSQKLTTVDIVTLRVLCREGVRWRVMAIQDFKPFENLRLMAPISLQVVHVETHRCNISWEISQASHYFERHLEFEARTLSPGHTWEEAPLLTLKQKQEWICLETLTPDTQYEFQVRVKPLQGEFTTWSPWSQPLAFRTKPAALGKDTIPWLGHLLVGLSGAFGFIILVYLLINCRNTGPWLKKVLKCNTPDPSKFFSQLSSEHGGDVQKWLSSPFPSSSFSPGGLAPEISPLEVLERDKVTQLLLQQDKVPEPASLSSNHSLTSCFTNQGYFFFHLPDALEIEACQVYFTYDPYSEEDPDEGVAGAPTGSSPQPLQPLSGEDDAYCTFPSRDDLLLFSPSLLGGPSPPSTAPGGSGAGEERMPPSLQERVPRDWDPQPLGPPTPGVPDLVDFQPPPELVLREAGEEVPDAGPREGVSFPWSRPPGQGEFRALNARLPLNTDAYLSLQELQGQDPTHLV
T2 sequence (looked up) 2: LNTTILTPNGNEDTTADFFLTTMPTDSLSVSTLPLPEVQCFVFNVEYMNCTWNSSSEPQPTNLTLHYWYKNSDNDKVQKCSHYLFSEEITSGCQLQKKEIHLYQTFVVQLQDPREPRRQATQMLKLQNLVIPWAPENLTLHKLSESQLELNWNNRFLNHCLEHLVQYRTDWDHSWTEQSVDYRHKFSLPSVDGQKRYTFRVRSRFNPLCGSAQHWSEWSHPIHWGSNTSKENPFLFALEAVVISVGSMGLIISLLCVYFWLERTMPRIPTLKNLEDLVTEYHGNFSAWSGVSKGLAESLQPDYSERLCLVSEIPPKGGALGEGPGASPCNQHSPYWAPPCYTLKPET

[5] = target: T2, intermediate-affinity IL-2R (containing …); remark: listed apart in the source
[6] = target: T1, high-affinity IL-2R (containing the …); remark: listed apart in the source
[7] = target: T2, intermediate-affinity IL-2R (containing …); remark: listed apart in the source
[8] = target: T2, intermediate-affinity IL-2R (containing …); remark: listed apart in the source
[9] = target: T1, high-affinity IL-2R (containing the …); remark: listed apart in the source
[10] = target: T2, intermediate-affinity IL-2R (containing …); remark: listed apart in the source

| Molecule | EC50 of pSTAT-5 induction in CTLL-2 cells (flow cytometry) [3] [nM] | EC50 of pSTAT-5 induction in HH cells (flow cytometry) [4] [nM] | EC50 (HH/CTLL-2): EC50 on HH cells (intermediate-affinity IL-2R) divided by EC50 on CTLL-2 cells (high-affinity IL-2R) [5] [ratio] | further results |
| --- | --- | --- | --- | --- |
| wild-type IL-2 (proleukin) (from UniProt P60568 21-153) (ligand) |  |  |  | EC50 (CTLL-2): pSTAT-5 induction in CTLL-2 cells (flow cytometry) [1]: 0.2 nM; EC50 of pSTAT-5 induction in CTLL-2 cells (flow cytometry) [1]: 0.17 nM; EC50 of pSTAT-5 induction in CTLL-2 cells (flow cytometry) [2]: 0.231 nM |
| B1 | 44.1 | 9.6 | 0.22 |  |
| B2 | 120 | 90.2 | 0.75 |  |
| B3 | 10 | 17.9 | 1.79 |  |
| B4 |  |  |  | EC50 of pSTAT-5 induction in CTLL-2 cells (flow cytometry) [6]: 2.02 nM; EC50 of pSTAT-5 induction in HH cells (flow cytometry) [7]: 0.11 nM; EC50 (HH/CTLL-2): EC50 on HH cells (intermediate-affinity IL-2R) divided by EC50 on CTLL-2 cells (high-affinity IL-2R) [8]: 0.05 ratio |
| B5 | 2.32 | 0.556 | 0.24 |  |
| B6 |  |  |  | EC50 (CTLL-2): pSTAT-5 induction in CTLL-2 cells (flow cytometry) [9]: 54.1 nM; EC50 (HH): pSTAT-5 induction in HH cells (flow cytometry) [10]: 2.01 nM; EC50 (HH/CTLL-2): EC50 on HH cells (intermediate-affinity IL-2R) divided by EC50 on CTLL-2 cells (high-affinity IL-2R) [10]: 0.037 ratio |
| B7 |  |  |  | EC50 of pSTAT-5 induction in CTLL-2 cells (flow cytometry) [6]: 9.56 nM; EC50 of pSTAT-5 induction in HH cells (flow cytometry) [7]: 8.95 nM; EC50 (HH/CTLL-2): EC50 on HH cells (intermediate-affinity IL-2R) divided by EC50 on CTLL-2 cells (high-affinity IL-2R) [8]: 0.94 ratio |
